# T1: D-2-hydroxy-4-methylpentanoic acid dehydrogenase (Lacticaseibacillus paracasei, UniProt P17584)
# T1 sequence (P17584 1-333): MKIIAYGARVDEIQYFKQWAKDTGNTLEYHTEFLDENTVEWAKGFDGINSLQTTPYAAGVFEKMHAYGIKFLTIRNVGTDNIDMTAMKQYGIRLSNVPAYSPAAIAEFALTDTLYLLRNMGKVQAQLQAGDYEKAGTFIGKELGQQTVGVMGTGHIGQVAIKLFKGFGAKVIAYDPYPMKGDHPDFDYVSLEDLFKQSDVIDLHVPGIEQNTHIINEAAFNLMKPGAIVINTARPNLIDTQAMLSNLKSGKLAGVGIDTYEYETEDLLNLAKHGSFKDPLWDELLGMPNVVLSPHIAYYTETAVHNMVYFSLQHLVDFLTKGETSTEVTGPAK
# Key:
# [1] = biological target: T1, D-2-hydroxy-4-methylpentanoic acid dehydrogenase; test: Reduction kinetics: reaction velocity versus NADH and 2-ketocarboxylic acid concentration; type: biochemical, Lactobacillus casei ssp. pseudoplantarum; set-up: endogenous in cells; host or cells: Lactobacillus casei ssp. pseudoplantarum DSM 20008, enzyme isolated from the cells grown in house
# Experimental: The reaction speed for reduction of different 2-ketocarboxylic acids was also investigated as a function of the keto acid concentration. […] The ketocarboxylic acid concentration was in each case varied from 0.01 to a maximum of 60 mM. The initial reaction velocity, change of extinction at 340 nm/min, was evaluated by non-linear regression of the Michaelis-Menten equation.
# [2] = biological target: T1, D-2-hydroxy-4-methylpentanoic acid dehydrogenase; test: Reduction of 2-ketocarboxylic acids in an enzyme membrane reactor with PEG-NADH, polarimetric read-out; type: biochemical, Lactobacillus casei ssp. pseudoplantarum (DSM 20008); set-up: endogenous in cells; host or cells: Lactobacillus casei ssp. pseudoplantarum DSM 20008, enzyme isolated from the cells grown in house; settings: 7.0 mM 2-ketocarboxylic acid feed, stationary value; for Rotation of Production Solution: 463 nm, 25° C.
# Experimental: (Preparation according to DE-PS 28 41 414). The following keto acids were converted individually in the reactor:
# 2-keto-4-methylpentanoic acid (sodium salt), 2-keto-4-(methylmercapto)-butyric acid (sodium salt) and phenyl pyruvate (sodium salt). The product stream flowing out of the membrane reactor was analyzed continuously in a polarimeter. The signals obtained were evaluated by means of calibration curves which had been obtained from optically active 2-hydroxy acids.
# The PEG-NADH is prepared according to DE-PS No. 28 41 414. […] The reactor volume is kept constant, by adding keto acid and sodium formate buffer from a reservoir at the same rate as the ultrafiltrate leaves the reactor. The reactor volume was 10 ml, the concentration of PEG-NADH 0.20 mM, and 9 U D-2-hydroxy-4-methylpentanoic acid dehydrogenase (27 U/mg) and 30 U formate-dehydrogenase were fed into the reactor. The substrate solution contained 300 mM sodium formate buffer of pH 7.0 and 7.0 mM of the corresponding 2-ketocarboxylic acid. The reaction solution was pumped over the membrane continuously with a peristaltic pump at 30 ml/hour. About 3 ml ultrafiltrate per hour was obtained. The ultrafiltrate was led continuously through a polarimeter cell (Perkin Elmer Type 241). The determinations were carried out at 463 nm and 25° C. From the measured rotatory value, the product concentration was determined from a calibration curve. The calibration curves were prepared with optically active 2-hydroxycarboxylic acids in 300 mM sodium formate buffer of pH 7.0. For this, the following preparations were used: L-phenyllactic acid (Sigma Company, Munich), L-2-hydroxy-4-methylpentanoic acid (Sigma Company, Munich), and D-2-hydroxy-4-(methylmercapto)-butyric acid (Degussa Company, Hanau). The conversion in the membrane reactor was followed over a period of 15 hours.
# [3] = biological target: T1, D-2-hydroxy-4-methylpentanoic acid dehydrogenase; test: Dehydrogenation kinetics: reaction velocity versus NAD+ and 2-hydroxycarboxylic acid concentration
# Experimental: The dependence of the reaction velocity on the NAD^+ concentration in the dehydrogenation of D-2-hydroxy-4-methylpentanoic acid was studied in the following test mixture: 0.1M phosphate buffer at pH 8.0, 12 mM D,L-2-hydroxy-4-methylpentanoic acid, limiting quantities of enzyme.
# The dependence of the reaction speed on the concentration of different 2-hydroxycarboxylic acids for the dehydrogenation of D-2-hydroxycarboxylicacids was tested in the following test mixture: 0.1M phosphate buffer at pH 8.0, 4.5 mM NAD^+ and limiting quantities of enzyme. The concentration of D-2-hydroxycarboxylic acid was varied in the range from 0.1 to a maximum of 30 mM. Inasmuch as no chiral D-2-hydroxycarboxylic acid was available, the racemate was added. […] The initial reaction velocity was evaluated according to Michaelis-Menten, and the kinetic constants Vmax and KM determined by non-linear regression.
# [4] = substrate: CSCCC(=O)C(=O)O; test: purified protein, by the assay type; type: biochemical, Lactobacillus casei ssp. pseudoplantarum; settings: other: reduction, pH 7.0, 0.1 mM NADH
# [5] = substrate: O=C(O)C(=O)CS; test: purified protein, by the assay type; type: biochemical, Lactobacillus casei ssp. pseudoplantarum; settings: other: reduction, pH 7.0, 0.1 mM NADH
# [6] = substrate: CC(C)C(=O)C(=O)O; test: purified protein, by the assay type; type: biochemical, Lactobacillus casei ssp. pseudoplantarum; settings: other: reduction, pH 7.0, 0.1 mM NADH
# [7] = substrate: CCCCCCC(=O)C(=O)O; test: purified protein, by the assay type; type: biochemical, Lactobacillus casei ssp. pseudoplantarum; settings: other: reduction, pH 7.0, 0.1 mM NADH
# [8] = substrate: CCC(=O)C(=O)O; test: purified protein, by the assay type; type: biochemical, Lactobacillus casei ssp. pseudoplantarum; settings: other: reduction, pH 7.0, 0.1 mM NADH
# [9] = substrate: CCCC(=O)C(=O)O; test: purified protein, by the assay type; type: biochemical, Lactobacillus casei ssp. pseudoplantarum; settings: other: reduction, pH 7.0, 0.1 mM NADH
# [10] = substrate: CCCCC(=O)C(=O)O; test: purified protein, by the assay type; type: biochemical, Lactobacillus casei ssp. pseudoplantarum; settings: other: reduction, pH 7.0, 0.1 mM NADH
# [11] = substrate: CC(C)CC(=O)C(=O)O; test: purified protein, by the assay type; type: biochemical, Lactobacillus casei ssp. pseudoplantarum; settings: other: reduction, pH 7.0, 0.1 mM NADH
# [12] = substrate: CCC(C)C(=O)C(=O)O; test: purified protein, by the assay type; type: biochemical, Lactobacillus casei ssp. pseudoplantarum; settings: other: reduction, pH 7.0, 0.1 mM NADH
# [13] = substrate: CC(C)CC(O)C(=O)O; test: purified protein, by the assay type; settings: other: dehydrogenation, pH 8.0, 4.5 mM NAD+, calculated assuming 50% D-acid in the racemic mixtures
# [14] = substrate: NC(=O)c1ccc[n+]([C@@H]2O[C@H](COP(=O)([O-])OP(=O)(O)OC[C@H]3O[C@@H](n4cnc5c(N)ncnc54)[C@H](O)[C@@H]3O)[C@@H](O)[C@H]2O)c1; test: purified protein, by the assay type; settings: other: pH 8.0, 12 mM D,L-2-hydroxy-4-methylpentanoic acid
# [15] = substrate: CCCCC(O)C(=O)O; test: purified protein, by the assay type; settings: other: dehydrogenation, pH 8.0, 4.5 mM NAD+, calculated assuming 50% D-acid in the racemic mixtures
# [16] = substrate: CC(C)C[C@@H](O)C(=O)O; test: purified protein, by the assay type; settings: other: dehydrogenation, pH 8.0, 4.5 mM NAD+, calculated assuming 50% D-acid in the racemic mixtures
# [17] = substrate: CCCCCCC(O)C(=O)O; test: purified protein, by the assay type; settings: other: dehydrogenation, pH 8.0, 4.5 mM NAD+, calculated assuming 50% D-acid in the racemic mixtures
# [18] = substrate: CSCCC(O)C(=O)O; test: purified protein, by the assay type; settings: other: dehydrogenation, pH 8.0, 4.5 mM NAD+, calculated assuming 50% D-acid in the racemic mixtures
# [19] = substrate: CCCC(O)C(=O)O; test: purified protein, by the assay type; settings: other: dehydrogenation, pH 8.0, 4.5 mM NAD+, calculated assuming 50% D-acid in the racemic mixtures
# [20] = substrate: NC(=O)C1=CN([C@@H]2O[C@H](COP(=O)(O)OP(=O)(O)OC[C@H]3O[C@@H](n4cnc5c(N)ncnc54)[C@H](O)[C@@H]3O)[C@@H](O)[C@H]2O)C=CC1; test: purified protein, by the assay type; settings: other: pH 7.0, 0.7 mM 2-keto-4-methylpentanoic acid
# [21] = substrate: O=C(O)C(=O)Cc1ccccc1; test: purified protein, by the assay type; settings: other: reduction, pH 7.0, 0.1 mM NADH
# [22] = substrate: O=C(O)C(O)Cc1ccccc1; test: purified protein, by the assay type; settings: other: dehydrogenation, pH 8.0, 4.5 mM NAD+, calculated assuming 50% D-acid in the racemic mixtures
molecule,measurement,setting,value
NC(=O)C1=CN([C@@H]2O[C@H](COP(=O)(O)OP(=O)(O)OC[C@H]3O[C@@H](n4cnc5c(N)ncnc54)[C@H](OP(=O)(O)O)[C@@H]3O)[C@@H](O)[C@H]2O)C=CC1 [NADPH],Replacement of the coenzyme NADH,[1]; checked up to a test concentration of 0.2 mM,cannot replace
CSCCC(=O)C(=O)O [2-keto-4-(methylmercapto)-butyric acid],Rotation of Production Solution,[2],-0.071 °
same,% conversion,[2],98%
same,Product concentration,[2],6.9 mM
O=C(O)C(=O)Cc1ccccc1 [2-keto-3-phenylpropionic acid],Rotation of Production Solution,[2],-0.115 °
same,% conversion,[2],100%
same,Product concentration,[2],7.0 mM
"NC(=O)c1ccc[n+]([C@@H]2O[C@H](COP(=O)([O-])OP(=O)(O)OC[C@H]3O[C@@H](n4cnc5c(N)ncnc54)[C@H](O)[C@@H]3O)[C@@H](O)[C@H]2O)c1 [NAD^+, nicotinamide-adeninedinucleotide]",NAD+ concentration at which the optimum conversion is reached,"[3]; pH 8.0, 12 mM D,L-2-hydroxy-4-methylpentanoic acid",4.5 mM
NC(=O)C1=CN([C@@H]2O[C@H](COP(=O)(O)OP(=O)(O)OC[C@H]3O[C@@H](n4cnc5c(N)ncnc54)[C@H](O)[C@@H]3O)[C@@H](O)[C@H]2O)C=CC1 [NADH],NADH concentration at which the optimal reaction velocity was reached,"[1]; pH 7.0, 0.7 mM 2-keto-4-methylpentanoic acid",0.10 mM
CC(C)CC(=O)C(=O)O [2-keto-4-methylpentanoic acid],Rotation of Production Solution,[2],-0.047 °
same,% conversion,[2],100%
same,Product concentration,[2],7.0 mM
NC(=O)c1ccc[n+]([C@@H]2O[C@H](COP(=O)([O-])OP(=O)(O)OC[C@H]3O[C@@H](n4cnc5c(N)ncnc54)[C@H](OP(=O)(O)O)[C@@H]3O)[C@@H](O)[C@H]2O)c1 [NADP],Replacement of the coenzyme NAD+,[3]; checked at test concentrations up to 10 mM,cannot replace
"D-2-hydroxy-4-methylpentanoic acid dehydrogenase (Lacticaseibacillus paracasei) (protein, 500 g Lactobacillus casei ssp. pseudoplantarum (DSM 20008) wet mass was suspended in 50 mM phosphate buffer; endogenous in cells; host or cells: Lactobacillus casei ssp. pseudoplantarum DSM 20008, enzyme isolated from the cells grown in house) MKIIAYGARVDEIQYFKQWAKDTGNTLEYHTEFLDENTVEWAKGFDGINSLQTTPYAAGVFEKMHAYGIKFLTIRNVGTDNIDMTAMKQYGIRLSNVPAYSPAAIAEFALTDTLYLLRNMGKVQAQLQAGDYEKAGTFIGKELGQQTVGVMGTGHIGQVAIKLFKGFGAKVIAYDPYPMKGDHPDFDYVSLEDLFKQSDVIDLHVPGIEQNTHIINEAAFNLMKPGAIVINTARPNLIDTQAMLSNLKSGKLAGVGIDTYEYETEDLLNLAKHGSFKDPLWDELLGMPNVVLSPHIAYYTETAVHNMVYFSLQHLVDFLTKGETSTEVTGPAK",Km,[4],620 µM
same,Vmax,[4],82.1 µmol/min/mg
same,Km,[5],400 µM
same,Vmax,[5],104.5 µmol/min/mg
same,Km,[6],4.8 mM
same,Vmax,[6],16.9 µmol/min/mg
same,Km,[7],310 µM
same,Vmax,[7],54.0 µmol/min/mg
same,Km,[8],1.7 mM
same,Vmax,[8],45.9 µmol/min/mg
same,Km,[9],110 µM
same,Vmax,[9],59.1 µmol/min/mg
same,Km,[10],110 µM
same,Vmax,[10],58.4 µmol/min/mg
same,Km,[11],60 µM
same,Vmax,[11],27.4 µmol/min/mg
same,Km,[12],2.2 mM
same,Vmax,[12],26.2 µmol/min/mg
same,Km,[13],1.4 mM
same,Vmax,[13],20.2 µmol/min/mg
same,Km,[14],0.45 mM
same,Km,[15],470 µM
same,Vmax,[15],11.3 µmol/min/mg
same,Km,[16],1.4 mM
same,Vmax,[16],20.2 µmol/min/mg
same,Km,[17],310 µM
same,Vmax,[17],10.0 µmol/min/mg
same,Km,[18],1.5 mM
same,Vmax,[18],2.6 µmol/min/mg
same,Km,[19],700 µM
same,Vmax,[19],10.8 µmol/min/mg
same,Km,[20],0.010 mM
same,Km,[21],150 µM
same,Vmax,[21],304.4 µmol/min/mg
same,Km,[22],1.1 mM
same,Vmax,[22],32.6 µmol/min/mg

# Source: patent US4609623A, “Microbiologically produced D-2-hydroxy-4-methylpentanoic acid dehydrogenase, process for its production and its use” (Degussa AG, priority 1983, dated 1986)
